Reference: the supplement of paper PMC12764529
± gives the half width of the 95% confidence interval.

Columns and labels:
[1] = folding stability dG unfold (combined trypsin and chymotrypsin); higher = more stable
In short: (§1)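 Only designs with AlphaFold2 dimer inter-PAE above 15 were retained; each was a mini-protein under 80 residues with no cysteine, in a PA-tagged cDNA display construct. After digestion with trypsin and chymotrypsin and sequencing, K50 was inferred by Bayesian fitting of counts, and unfolding free energy was derived per protease or combined against a sequence-predicted unfolded-state K50 and a shared folded-state K50.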

[2] = folding stability dG unfold from trypsin proteolysis; higher = more stable
In short: as §1

[3] = folding stability dG unfold from chymotrypsin proteolysis; higher = more stable
In short: as §1

| Sequence | folding stability dG unfold [1] [kcal/mol] | folding stability dG unfold [2] [kcal/mol] | folding stability dG unfold [3] [kcal/mol] |
| --- | --- | --- | --- |
| SAGGSAGGSAGGGMTVLSFTMPKEEVEKYFEEKGLDATEMTISPGPGDTYSVTVLDPGSSAGGSAGGSAGGS [r10_999_JUSTAS] | 0.151 ± 0.12 | 0.33 ± 0.089 | -0.0653 ± 0.17 |
| SAGGSAGGSAGGGNLALPPRYRITVRIEKDGSTSTVEFDSEEELAALDDPGLTVTEVREESAGGSAGGSAGG [r7_793_JUSTAS] | 0.745 ± 0.11 | -0.743 ± 0.35 | 1.18 ± 0.036 |
| SAGGSAGGSAGGGRMLLTETETIFSPSGGESVVTRLVTVFRPPPPVFLPDPEGRWSELVSAGGSAGGSAGGS [r10_330_JUSTAS] | 0.856 ± 0.22 | 0.999 ± 0.14 | 0.769 ± 0.3 |
| SAGGSAGGSAGGGRVELELTFIREDGYAVKVRIEVDEDGNLRIEVEVVKLPPAASPEELSAGGSAGGSAGGS [r10_878_TrROS_Hall] | 2.86 ± 0.088 | 3.23 ± 0.14 | 2.31 ± 0.072 |
| SAGGSAGGSAGGGSMLTVKVPETVPEYTSTDPATGKTYNVPPSVPVEVEGSPDSFSILLSAGGSAGGSAGGS [r10_46_JUSTAS] | 1.01 ± 0.094 | 1.21 ± 0.046 | 0.842 ± 0.095 |
| SAGGSAGGSAGGGSMPVTERIPGSPSSVTTTTFPDGTVTTETTAGPPVTLSPAGGSTLVSAGGSAGGSAGGS [r10_664_JUSTAS] | 1.08 ± 0.11 | 0.97 ± 0.073 | 1.09 ± 0.058 |
| SAGGSAGGSAGGGSMTLELPLPEWSEEEIEALAEELKKKGLKVKEIERDPESDVVRITVESAGGSAGGSAGG [r7_906_JUSTAS] | 2.15 ± 0.11 | 1.79 ± 0.1 | 2.28 ± 0.078 |
| SAGGSAGGSAGGGSMTTTTLTFTVPPDVTPEEVRAALEAAGYGDVAVTREGNTWTVTVTSAGGSAGGSAGGS [r10_868_JUSTAS] | 2.4 ± 0.1 | 1.56 ± 0.049 | 2.6 ± 0.039 |
| SAGGSAGGSAGGGSSGVSYGSVPIVIRDPSGNVVSTLTLRVYPDGTVVLEFPDGSLLLLSAGGSAGGSAGGS [r10_972_JUSTAS] | 3.86 ± 0.087 | 3.38 ± 0.081 | 4.11 ± 0.045 |
| SAGGSAGGSAGGGSTTTTTETYPENGLIFTTTTTVFDDGSLSVTTTTSPLPLPPSPFIATSAGGSAGGSAGG [r7_103_JUSTAS] | 1.05 ± 0.18 | 1.29 ± 0.043 | 0.394 ± 0.18 |
| SAGGSAGGSAGGGSVTIRVESPEEAVATAKELLEKLTGAKPEATPLNVVVEEPDGVATVESAGGSAGGSAGG [r7_387_JUSTAS] | 0.378 ± 0.13 | 1.03 ± 0.058 | -0.721 ± 0.18 |
| SAGGSAGGSAGGGSVVTTETSVSPNGVVTTTTTTTFLDPDGNPLGTTTTTTAHAAPPTTSAGGSAGGSAGGS [r10_403_JUSTAS] | 2.12 ± 0.024 | 2.58 ± 0.076 | 1.8 ± 0.031 |
| SAGGSAGGSAGGGTVTLEIELKVKPGEKIKDLATGEEFEVKEGETVRIRITLPLPPAPEESAGGSAGGSAGG [r7_234_TrROS_Hall] | 1.2 ± 0.17 | 0.963 ± 0.068 | 1.11 ± 0.078 |
| SAGGSAGGSAGGGVGIAEISFDPETQTVTIKAYNPETEEITEITIPVTNPLPLDLSDITSAGGSAGGSAGGS [r10_331_TrMRF] | 0.725 ± 0.2 | 0.477 ± 0.085 | 0.858 ± 0.14 |
| SAGGSAGGSAGGGVKYRVLLPKDVNPEKAAELLKPYGVKVVSIEEVEEGFYLIEVEKPESAGGSAGGSAGGS [r10_591_TrMRF] | 1.49 ± 0.13 | 1.18 ± 0.032 | 1.59 ± 0.13 |
| SAGGSAGGSAGGGVTLPTGDIVVPVEYTTTVPVLTYNPTLGVSYFFTLTVTTSSTVYVGLSAGGSAGGSAGG [r7_374_JUSTAS] | 3.37 ± 0.082 | 2.71 ± 0.057 | 3.868 ± 0.026 |
| SAGGSAGGSAGGGWAEIEIKITIFVFDPGNMTLFMVTLEPRIEVPPVKRDPDNGKWKPDSAGGSAGGSAGGS [r10_815_TrROS] | 3.81 ± 0.42 | 2.86 ± 0.23 | 3.92 ± 0.21 |
| SAGGSAGGSAGGIEKFLEKHPELKIKKEIKIKIPYKTKDGKEFEVEYKIFYLTSEDEEDSAGGSAGGSAGGS [r10_0_TrMRF] | 2.36 ± 0.07 | 1.39 ± 0.05 | 2.74 ± 0.057 |
| SAGGSAGGSAGGIGDDGKVRVALLDKNGKVLGPVYVTKVEEGKIEVEAEPDYTLVLNLESAGGSAGGSAGGS [r10_1257_TrMRF] | 0.329 ± 0.15 | -0.0768 ± 0.11 | 0.487 ± 0.12 |
| SAGGSAGGSAGGIIIPPGAKIVSIEKEGDFVKIKVYIPGSKKIETFKFPKGVPIIFEPEASAGGSAGGSAGG [r11_774_TrMRF] | 3.41 ± 0.15 | 3.51 ± 0.28 | 3.24 ± 0.075 |
| SAGGSAGGSAGGIKITPDIRELLRQQGKPFSEEEIQGIAKYIAKHFKEKGFEDVTIRIPWSAGGSAGGSAGG [r7_512_TrROS] | 0.774 ± 0.14 | 0.471 ± 0.17 | 0.783 ± 0.2 |

| Sequence | folding stability dG unfold [1] [kcal/mol] | folding stability dG unfold [2] [kcal/mol] | folding stability dG unfold [3] [kcal/mol] |
| --- | --- | --- | --- |
| SAGGSAGGSAGGIRIEFPGMKFEIDEFDPPNGVITLRFPENGQELQIKFDSDGEITKITWSAGGSAGGSAGG [r7_553_TrROS] | 2.25 ± 0.28 | 2.05 ± 0.2 | 1.94 ± 0.14 |
| SAGGSAGGSAGGIWITMRPDNPDEFIDALRKKGKIRIVEVEPKNGNVIMRVTLDGQPLTSAGGSAGGSAGGS [r10_695_TrROS] | 0.368 ± 0.088 | 0.0442 ± 0.14 | 0.53 ± 0.11 |
| SAGGSAGGSAGGKATLGEDGFLVIEREVELPDGPYRPETLVIPLPELTPEEVERLLETESAGGSAGGSAGGS [r10_1096_TrMRF] | 1.05 ± 0.096 | 1.24 ± 0.13 | 0.919 ± 0.044 |
| SAGGSAGGSAGGKDGYYKAIIELPGGEKREIVFKYEDFEEALKSLGIPLENVKIVKIEEGSAGGSAGGSAGG [r7_211_TrMRF] | 3.48 ± 0.18 | 3.3 ± 0.2 | 3.49 ± 0.11 |
| SAGGSAGGSAGGKEYKLVKVKVKVEITLPKGSELLKKLGLSEEDVKFEFELEVVVLVKPSAGGSAGGSAGGS [r10_82_TrROS_Hall] | 3.68 ± 0.23 | 2.82 ± 0.21 | 3.93 ± 0.074 |
| SAGGSAGGSAGGKIEIKTFPDGYVLAKIEFPDEDKALVILAKVKPNPGKVLEAIIRPADSAGGSAGGSAGGS [r10_613_TrMRF] | 1.38 ± 0.097 | 1.2 ± 0.025 | 1.51 ± 0.062 |
| SAGGSAGGSAGGKIENWKITKVETKLHPNGFPYLVIELSNEKKKIRVLIYPNGELKAFEESAGGSAGGSAGG [r7_675_TrMRF] | 3.82 ± 0.31 | 2.8 ± 0.42 | 4.07 ± 0.21 |
| SAGGSAGGSAGGKIIHPDLKKPLDVLEKFELIIGGKPYLFFLSRGEGELRLLVIPAGKESAGGSAGGSAGGS [r10_517_TrMRF] | 2.15 ± 0.048 | 1.54 ± 0.021 | 2.53 ± 0.055 |
| SAGGSAGGSAGGKIYYLDKDLFVIDLPDPKTGKPIKIAIGGDPNRPDEILKLAKELAESSAGGSAGGSAGGS [r10_379_TrMRF] | -0.0301 ± 0.2 | 0.0383 ± 0.039 | -0.398 ± 0.26 |
| SAGGSAGGSAGGKKIEIEFTVKILREPEPGELVPYEVKGKLEINIDPDGNLKIELKFEPGSAGGSAGGSAGG [r11_607_TrMRF] | 3.06 ± 0.15 | 2.81 ± 0.11 | 3.26 ± 0.073 |
| SAGGSAGGSAGGKKIIKVPLKNAEKIKKELKKKYKIKKVKIEKNKDGSKYIYIEVEKPKSAGGSAGGSAGGS [r10_1219_TrROS_Hall] | 1.5 ± 0.23 | 0.939 ± 0.071 | 1.69 ± 0.16 |
| SAGGSAGGSAGGKKIKIKINSPGNAEEVKKLLEPFGLEVDSIKENKNNPNLIIVEVNVESAGGSAGGSAGGS [r10_104_TrMRF] | 0.242 ± 0.11 | -0.276 ± 0.11 | 0.563 ± 0.031 |
| SAGGSAGGSAGGKKIRFYFPNGNPVELTEILDVDPEDKWARIDVEHNGKKHKHPMPADDLSAGGSAGGSAGG [r7_236_TrROS] | < -1 | -1.36 ± 0.68 | -1.19 ± 0.39 |
| SAGGSAGGSAGGKKIRIVVPKENLEKIEELAKKLGPDVKIVKVEYFKETDYVVVEVEVKSAGGSAGGSAGGS [r10_23_TrROS_Hall] | 2.11 ± 0.086 | 2.16 ± 0.06 | 1.98 ± 0.075 |
| SAGGSAGGSAGGKKKKVIEIELKPGEKLTLEQIKEIAKKLNVKKVKVEKVDGKLKIVVESAGGSAGGSAGGS [r10_642_TrROS_Hall] | 0.815 ± 0.16 | 0.502 ± 0.057 | 0.892 ± 0.065 |
| SAGGSAGGSAGGKKPKVKVIKLTLTVTKLTEKDGKLTLEKKTITLTAVIDPETGKIHLLSAGGSAGGSAGGS [r10_533_TrROS_Hall] | 3.5 ± 0.16 | 3.2 ± 0.14 | 3.5 ± 0.089 |
| SAGGSAGGSAGGKKPVKITEIHRNPGPNWIRIRIPGNGRPIPIPVPPGKKLTLEDALDFSAGGSAGGSAGGS [r10_844_TrROS] | -0.304 ± 0.19 | -0.648 ± 0.38 | -0.0211 ± 0.29 |
| SAGGSAGGSAGGKKTITVPVKIEEVDGKFRITLPDGKVIEFPPGAKVEEKDGLLTIELESAGGSAGGSAGGS [r10_305_TrROS_Hall] | 1.14 ± 0.11 | 0.932 ± 0.025 | 1.13 ± 0.078 |
| SAGGSAGGSAGGKKTIVIEINGKKYTITRIEFDKDTKKITIEIEFNGKKLKIEIELPKNLSAGGSAGGSAGG [r7_477_TrROS_Hall] | 3.11 ± 0.27 | 2.17 ± 0.078 | 3.31 ± 0.16 |
| SAGGSAGGSAGGKKTYVKKIVTEKKKVKLFFYDKKTGELLEEKEVEVIKTKIYVTKPDEFSAGGSAGGSAGG [r7_573_TrMRF] | 0.868 ± 0.26 | 0.479 ± 0.13 | 0.884 ± 0.31 |
| SAGGSAGGSAGGKKVILIRGLTPEEIEALAKELEELFPDLKVTIERLPGEEGTLLITVDSAGGSAGGSAGGS [r10_852_TrROS_Hall] | 2.38 ± 0.14 | 2.92 ± 0.17 | 1.91 ± 0.1 |
